In patent publication US11583572B2, “Encapsulation of ultra-stable insulin analogues with polymer melts” (CASE WESTERN RESERVE UNIVERSITY, priority 2015, dated 2023):
Bridges are numbered along the chain shown (N, C = ends). Where no end group is shown, it is not given here.

Assays:
[1] = Elution of protein from PLGA polymer cylinders in phosphate-buffered saline (Bradford assay calibrated by ELISA); type: physicochemical; settings: 5% PEG, PBS pH 7.4, 37° C.
Description: FIG. 4 is a graph showing elution of ultra-stable single-chain analogue (SCI) from PLGA polymer (50-50%) in phosphate-buffered saline (pH 7.4 and 37° C.). Horizontal axis denotes soaking time. Vertical axis denotes nanograms of insulin analogue (dark gray triangles) or relative Bradford-active material in control polymers containing hen egg white lysozyme (light gray squares) or no protein (dark gray diamonds). The latter represents background signal in the Bradford assay due to non-protein material. Horizontal plateau at days 10-15 represents no further elution of protein from the polymers. Samples were made with 5% PEG (mean molecular mass 8 kDa) to optimize the near-linear rate of SCI elution between 1-10 days. Immediate burst release of a portion of the material is not shown.
Elution of insulin analogue protein from a polymer melt in phosphate buffered saline (PBS) at pH 7.4 was also examined. Test cylindrical polymers were prepared with 50%-50% PLGA containing 25% weight/weight of a single-chain insulin (SCI) analogue stabilized by a fourth disulfide bridge between residues B4 and A10. […]
The cumulative amounts of protein released are also provided below in Table 1. In this table the micrograms of insulin corresponding to the Bradford assay was verified by ELISA whereas the readings for lysozyme are uncalibrated by an independent assay.

[2] = biological target: A isoform of the insulin receptor (Homo sapiens, UniProt P06213)
Chain of A isoform of the insulin receptor (P06213 28-746 isoform P06213-2 limits assumed): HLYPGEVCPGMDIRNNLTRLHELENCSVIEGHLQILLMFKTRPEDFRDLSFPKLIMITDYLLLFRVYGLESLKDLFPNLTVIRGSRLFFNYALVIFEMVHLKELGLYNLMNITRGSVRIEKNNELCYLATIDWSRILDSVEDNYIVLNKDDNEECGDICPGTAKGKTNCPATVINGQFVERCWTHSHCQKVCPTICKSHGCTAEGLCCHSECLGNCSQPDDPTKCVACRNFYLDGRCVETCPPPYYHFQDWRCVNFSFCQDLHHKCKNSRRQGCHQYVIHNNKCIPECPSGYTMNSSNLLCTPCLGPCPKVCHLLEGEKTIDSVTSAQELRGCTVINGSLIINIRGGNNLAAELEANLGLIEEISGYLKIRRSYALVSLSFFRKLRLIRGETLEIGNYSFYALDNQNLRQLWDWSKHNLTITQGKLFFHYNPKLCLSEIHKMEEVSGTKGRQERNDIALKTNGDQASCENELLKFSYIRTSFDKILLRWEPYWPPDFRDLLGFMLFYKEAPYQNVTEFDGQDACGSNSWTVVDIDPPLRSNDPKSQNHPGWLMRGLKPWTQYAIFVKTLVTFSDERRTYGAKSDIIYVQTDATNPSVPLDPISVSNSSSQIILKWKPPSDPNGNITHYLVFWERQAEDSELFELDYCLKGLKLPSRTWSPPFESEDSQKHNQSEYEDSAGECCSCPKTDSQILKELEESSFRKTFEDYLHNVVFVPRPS
Chain of A isoform of the insulin receptor (P06213 763-1382 partner limits assumed): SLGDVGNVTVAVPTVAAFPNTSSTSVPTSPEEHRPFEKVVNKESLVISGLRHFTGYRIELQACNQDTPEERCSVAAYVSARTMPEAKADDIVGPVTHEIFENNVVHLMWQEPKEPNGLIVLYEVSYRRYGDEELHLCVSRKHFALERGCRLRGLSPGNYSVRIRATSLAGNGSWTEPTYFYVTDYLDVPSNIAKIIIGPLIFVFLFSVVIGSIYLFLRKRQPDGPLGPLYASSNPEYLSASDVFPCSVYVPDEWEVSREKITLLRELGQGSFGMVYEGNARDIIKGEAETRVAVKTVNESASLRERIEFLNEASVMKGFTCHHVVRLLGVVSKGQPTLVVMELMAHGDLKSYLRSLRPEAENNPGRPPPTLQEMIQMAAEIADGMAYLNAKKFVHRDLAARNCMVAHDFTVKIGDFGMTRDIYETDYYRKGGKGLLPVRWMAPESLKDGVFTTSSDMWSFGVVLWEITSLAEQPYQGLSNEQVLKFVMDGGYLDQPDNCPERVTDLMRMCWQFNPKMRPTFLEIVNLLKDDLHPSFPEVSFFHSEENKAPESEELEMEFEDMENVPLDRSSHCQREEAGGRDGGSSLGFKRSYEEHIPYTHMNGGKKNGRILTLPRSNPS

hen egg-white lysozyme: control protein in analogous co-polymer instead of an insulin analogue
protein release from PLGA polymer during days 10-15 [1]: no further release

FVNCHLCGSHLVEALYLVCGERGFFYTDPTEEGPRRGIVEQCCHSCCSLEQLENYCN (disulfide 4-46, 7-43, 19-56, 42-47) [4SS 81-04]
affinity for the A isoform of the insulin receptor relative to human insulin [2]: 120±20%
